Experimental data as given in US10487348B2, “3-alpha-hydroxysteroid dehydrogenase mutants and process for the preparation of ursodeoxycholic acid” (Pharmazell GmbH, priority 2014, dated 2019).

Key:
[1] = substrate: C[C@H](CCC(=O)O)[C@H]1CC[C@H]2[C@@H]3C(=O)C[C@@H]4CC(=O)CC[C@]4(C)[C@H]3CC(=O)[C@]12C; assay: cells, lysate or membranes named; conditions: other: His tag length 3; DHCA 10 μM-10 mM; NADH 0.2 mM; purified; pH 8.0; 25.0 °C
Description: The His-tag allows for very simple purification of the HSDH protein since this sequence is bound with high specificity by specific chromatographic material (NTA (Ni-nitrilotriacetate)-modified support material, loaded with divalent nickel ions, for example “His Pur Ni-NTA” (Nimagen B. V., Nijmegen, The Netherlands)). To this end, the cell-free crude extract is applied to a dropping column comprising this material, which dropping column has previously been equilibrated with the disruption buffer (3 to 5 column volumes). Weakly binding protein was removed by washing with 3 to 5 column volumes of wash buffer (20 mM imidazole, 50 mM sodium phosphate, 300 mM NaCl, pH 8). […] The process was carried out at room temperature. The imidazole which was present was to be removed by buffer exchange.
The activity of the 3α-HSDH and of the mutants was determined using a photometric assay, where the decrease in absorbance was measured at 340 nm over a period of 30 seconds.
Following expression (25° C., 0.5 mM, IPTG, 20 hours), the protein was purified, and the expression and the purification were checked by means of an SDS gel. […] The NADH concentration was 0.2 mM. Purified protein was employed in the measurements.

[2] = system: 3α-HSDH; substrate DHCA; format: biochemical, Comamonas testosteroni; conditions: for DHCA substrate concentration at maximum specific activity / substrate excess inhibition: purified enzyme variant
[3] = substrate: C[C@H](CCC(=O)O)[C@H]1CC[C@H]2[C@@H]3C(=O)C[C@@H]4CC(=O)CC[C@]4(C)[C@H]3CC(=O)[C@]12C; assay: purified protein, by the assay type; conditions: other: Table 14, substrate DHCA, tag N, apparent values, pH 8.0
[4] = substrate: NC(=O)C1=CN([C@@H]2O[C@H](COP(=O)(O)OP(=O)(O)OC[C@H]3O[C@@H](n4cnc5c(N)ncnc54)[C@H](O)[C@@H]3O)[C@@H](O)[C@H]2O)C=CC1; assay: purified protein, by the assay type; conditions: other: Table 15, substrate NADH; tag N; apparent values; pH 8.0

Molecule	DHCA substrate concentration at maximum specific activity [2]	substrate excess inhibition ([2]; substrate DHCA)	Km [3]	Km [4]	Vmax [4]	kcat [4]	kcat/Km [4]	further results
Comamonas testosteroni 3α-HSDH, wild type, C-terminal 3×His tag (Comamonas testosteroni) (protein) MSIIVISGCATGIGAATRKVLEAAGHQIVGIDIRDAEVIADLSTAEGRKQAIADVLAKCSKGMDGLVLCAGLGPQTKVLGNVVSVNYFGATELMDAFLPALKKGHQPAAVVISSVASAHLAFDKNPLALALEAGEEAKARAIVEHAGEQGGNLAYAGSKNALTVAVRKRAAAWGEAGVRLNTIAPGATETPLLQAGLQDPRYGESIAKFVPPMGRRAEPSEMASVIAFLMSPAASYVHGAQIVIDGGIDAVMRPTQFLEHHH								Km [1]: 997.9 ± 483 µM
T188A N: 3α-HSDH mutant T188A with N-terminal hexahistidine tag (protein, UniProt P80702 2-257, looked up, variant T188A, N-terminal His6 tag, 3α-HSDH mutant T188A with N-terminal hexahistidine tag) 3-alpha-hydroxysteroid …: SIIVISGCATGIGAATRKVLEAAGHQIVGIDIRDAEVIADLSTAEGRKQAIADVLAKCSKGMDGLVLCAGLGPQTKVLGNVVSVNYFGATELMDAFLPALKKGHQPAAVVISSVASAHLAFDKNPLALALEAGEEAKARAIVEHAGEQGGNLAYAGSKNALTVAVRKRAAAWGEAGVRLNTIAPGAAETPLLQAGLQDPRYGESIAKFVPPMGRRAEPSEMASVIAFLMSPAASYVHGAQIVIDGGIDAVMRPTQF	0.5 mM	pronounced substrate excess inhibition						
L68A N: 3α-HSDH mutant L68A with N-terminal hexahistidine tag (protein, UniProt P80702 2-257, looked up, variant L68A, N-terminal His6 tag, 3α-HSDH mutant L68A with N-terminal hexahistidine tag) 3-alpha-hydroxysteroid …: SIIVISGCATGIGAATRKVLEAAGHQIVGIDIRDAEVIADLSTAEGRKQAIADVLAKCSKGMDGLVACAGLGPQTKVLGNVVSVNYFGATELMDAFLPALKKGHQPAAVVISSVASAHLAFDKNPLALALEAGEEAKARAIVEHAGEQGGNLAYAGSKNALTVAVRKRAAAWGEAGVRLNTIAPGATETPLLQAGLQDPRYGESIAKFVPPMGRRAEPSEMASVIAFLMSPAASYVHGAQIVIDGGIDAVMRPTQF	0.1 mM	pronounced substrate excess inhibition						
T188S N: 3α-HSDH mutant T188S with N-terminal hexahistidine tag (protein, UniProt P80702 2-257, looked up, variant T188S, N-terminal His6 tag, 3α-HSDH mutant T188S with N-terminal hexahistidine tag) 3-alpha-hydroxysteroid …: SIIVISGCATGIGAATRKVLEAAGHQIVGIDIRDAEVIADLSTAEGRKQAIADVLAKCSKGMDGLVLCAGLGPQTKVLGNVVSVNYFGATELMDAFLPALKKGHQPAAVVISSVASAHLAFDKNPLALALEAGEEAKARAIVEHAGEQGGNLAYAGSKNALTVAVRKRAAAWGEAGVRLNTIAPGASETPLLQAGLQDPRYGESIAKFVPPMGRRAEPSEMASVIAFLMSPAASYVHGAQIVIDGGIDAVMRPTQF	0.5 mM	substrate excess inhibition is observed						
L68A/T188S N: 3α-HSDH dual mutant L68A/T188S with N-terminal hexahistidine tag (protein, UniProt P80702 2-257, looked up, variant L68A T188S, N-terminal His6 tag, 3α-HSDH dual mutant L68A/T188S with N-terminal hexahistidine tag) 3-alpha-hydroxysteroid …: SIIVISGCATGIGAATRKVLEAAGHQIVGIDIRDAEVIADLSTAEGRKQAIADVLAKCSKGMDGLVACAGLGPQTKVLGNVVSVNYFGATELMDAFLPALKKGHQPAAVVISSVASAHLAFDKNPLALALEAGEEAKARAIVEHAGEQGGNLAYAGSKNALTVAVRKRAAAWGEAGVRLNTIAPGASETPLLQAGLQDPRYGESIAKFVPPMGRRAEPSEMASVIAFLMSPAASYVHGAQIVIDGGIDAVMRPTQF	0.5 mM	pronounced substrate excess inhibition						
L68A/T188A N: 3α-HSDH dual mutant L68A/T188A with N-terminal hexahistidine tag (protein, UniProt P80702 2-257, looked up, variant L68A T188A, N-terminal His6 tag, 3α-HSDH dual mutant L68A/T188A with N-terminal hexahistidine tag) 3-alpha-hydroxysteroid …: SIIVISGCATGIGAATRKVLEAAGHQIVGIDIRDAEVIADLSTAEGRKQAIADVLAKCSKGMDGLVACAGLGPQTKVLGNVVSVNYFGATELMDAFLPALKKGHQPAAVVISSVASAHLAFDKNPLALALEAGEEAKARAIVEHAGEQGGNLAYAGSKNALTVAVRKRAAAWGEAGVRLNTIAPGAAETPLLQAGLQDPRYGESIAKFVPPMGRRAEPSEMASVIAFLMSPAASYVHGAQIVIDGGIDAVMRPTQF	0.5 mM	less pronounced substrate excess inhibition						
P185A/T188A N: 3α-HSDH dual mutant P185A/T188A with N-terminal hexahistidine tag (protein, UniProt P80702 2-257, looked up, variant P185A T188A, N-terminal His6 tag, 3α-HSDH dual mutant P185A/T188A with N-terminal hexahistidine tag) 3-alpha-hydroxysteroid …: SIIVISGCATGIGAATRKVLEAAGHQIVGIDIRDAEVIADLSTAEGRKQAIADVLAKCSKGMDGLVLCAGLGPQTKVLGNVVSVNYFGATELMDAFLPALKKGHQPAAVVISSVASAHLAFDKNPLALALEAGEEAKARAIVEHAGEQGGNLAYAGSKNALTVAVRKRAAAWGEAGVRLNTIAAGAAETPLLQAGLQDPRYGESIAKFVPPMGRRAEPSEMASVIAFLMSPAASYVHGAQIVIDGGIDAVMRPTQF	0.5 mM	substrate excess inhibition was observed						activities compared with the corresponding single mutants ([2]; substrate DHCA): markedly lower
Comamonas testosteroni 3α-HSDH mutant [T188A], N-terminal hexahistidine tag (Comamonas testosteroni; T188A) (protein) MSIIVISGCATGIGAATRKVLEAAGHQIVGIDIRDAEVIADLSTAEGRKQAIADVLAKCSKGMDGLVLCAGLGPQTKVLGNVVSVNYFGATELMDAFLPALKKGHQPAAVVISSVASAHLAFDKNPLALALEAGEEAKARAIVEHAGEQGGNLAYAGSKNALTVAVRKRAAAWGEAGVRLNTIAPGAAETPLLQAGLQDPRYGESIAKFVPPMGRRAEPSEMASVIAFLMSPAASYVHGAQIVIDGGIDAVMRPTQF			94.5 ± 11 µM	111.5 ± 18.2 µM	237 µmol/min/mg	130 s⁻¹	1.17e+06 M⁻¹ s⁻¹	
Comamonas testosteroni 3α-HSDH dual mutant [P185A/T188A], N-terminal hexahistidine tag (Comamonas testosteroni; P185A/T188A) (protein) MSIIVISGCATGIGAATRKVLEAAGHQIVGIDIRDAEVIADLSTAEGRKQAIADVLAKCSKGMDGLVLCAGLGPQTKVLGNVVSVNYFGATELMDAFLPALKKGHQPAAVVISSVASAHLAFDKNPLALALEAGEEAKARAIVEHAGEQGGNLAYAGSKNALTVAVRKRAAAWGEAGVRLNTIAAGAAETPLLQAGLQDPRYGESIAKFVPPMGRRAEPSEMASVIAFLMSPAASYVHGAQIVIDGGIDAVMRPTQF			66.9 ± 15 µM	333.9 ± 137.5 µM	85.9 µmol/min/mg	17.6 s⁻¹	52600 M⁻¹ s⁻¹	
Comamonas testosteroni 3α-HSDH mutant [P185A], N-terminal hexahistidine tag (Comamonas testosteroni; P185A) (protein) MSIIVISGCATGIGAATRKVLEAAGHQIVGIDIRDAEVIADLSTAEGRKQAIADVLAKCSKGMDGLVLCAGLGPQTKVLGNVVSVNYFGATELMDAFLPALKKGHQPAAVVISSVASAHLAFDKNPLALALEAGEEAKARAIVEHAGEQGGNLAYAGSKNALTVAVRKRAAAWGEAGVRLNTIAAGATETPLLQAGLQDPRYGESIAKFVPPMGRRAEPSEMASVIAFLMSPAASYVHGAQIVIDGGIDAVMRPTQF			71.0 ± 11 µM					
Comamonas testosteroni 3α-HSDH mutant [T188S], N-terminal hexahistidine tag (Comamonas testosteroni; T188S) (protein) MSIIVISGCATGIGAATRKVLEAAGHQIVGIDIRDAEVIADLSTAEGRKQAIADVLAKCSKGMDGLVLCAGLGPQTKVLGNVVSVNYFGATELMDAFLPALKKGHQPAAVVISSVASAHLAFDKNPLALALEAGEEAKARAIVEHAGEQGGNLAYAGSKNALTVAVRKRAAAWGEAGVRLNTIAPGASETPLLQAGLQDPRYGESIAKFVPPMGRRAEPSEMASVIAFLMSPAASYVHGAQIVIDGGIDAVMRPTQF			312.6 ± 112 µM	87.6 ± 29.7 µM	147 µmol/min/mg	96.1 s⁻¹	1.1e+06 M⁻¹ s⁻¹	
Comamonas testosteroni 3α-HSDH mutant [L68A], N-terminal hexahistidine tag (Comamonas testosteroni; L68A) (protein) MSIIVISGCATGIGAATRKVLEAAGHQIVGIDIRDAEVIADLSTAEGRKQAIADVLAKCSKGMDGLVACAGLGPQTKVLGNVVSVNYFGATELMDAFLPALKKGHQPAAVVISSVASAHLAFDKNPLALALEAGEEAKARAIVEHAGEQGGNLAYAGSKNALTVAVRKRAAAWGEAGVRLNTIAPGATETPLLQAGLQDPRYGESIAKFVPPMGRRAEPSEMASVIAFLMSPAASYVHGAQIVIDGGIDAVMRPTQF				17.1 ± 3.7 µM	138 µmol/min/mg	110 s⁻¹	6.46e+06 M⁻¹ s⁻¹	Km ([3]; NADH 0.2 mM): 75.4 ± 22.6 µM
Comamonas testosteroni 3α-HSDH dual mutant [L68A/T188S], N-terminal hexahistidine tag (Comamonas testosteroni; L68A/T188S) (protein) MSIIVISGCATGIGAATRKVLEAAGHQIVGIDIRDAEVIADLSTAEGRKQAIADVLAKCSKGMDGLVACAGLGPQTKVLGNVVSVNYFGATELMDAFLPALKKGHQPAAVVISSVASAHLAFDKNPLALALEAGEEAKARAIVEHAGEQGGNLAYAGSKNALTVAVRKRAAAWGEAGVRLNTIAPGASETPLLQAGLQDPRYGESIAKFVPPMGRRAEPSEMASVIAFLMSPAASYVHGAQIVIDGGIDAVMRPTQF			169.6 ± 22.6 µM	47.4 ± 2.6 µM	188 µmol/min/mg	91.8 s⁻¹	1.94e+06 M⁻¹ s⁻¹	
Comamonas testosteroni 3α-HSDH dual mutant [L68A/T188A], N-terminal hexahistidine tag (Comamonas testosteroni; L68A/T188A) (protein) MSIIVISGCATGIGAATRKVLEAAGHQIVGIDIRDAEVIADLSTAEGRKQAIADVLAKCSKGMDGLVACAGLGPQTKVLGNVVSVNYFGATELMDAFLPALKKGHQPAAVVISSVASAHLAFDKNPLALALEAGEEAKARAIVEHAGEQGGNLAYAGSKNALTVAVRKRAAAWGEAGVRLNTIAPGAAETPLLQAGLQDPRYGESIAKFVPPMGRRAEPSEMASVIAFLMSPAASYVHGAQIVIDGGIDAVMRPTQF			164.4 ± 20.4 µM	67.5 ± 4.7 µM	229 µmol/min/mg	111 s⁻¹	1.65e+06 M⁻¹ s⁻¹	
